The target of the assay is IE-3 fragment antigen-binding (Fab) region, recombinant, labelled. The assay is described as follows: MST.

B1: mouse ZP2 N-terminal ZP-N1 domain (mZP2-N1), His-tagged (domain or fragment)
chain: VSLPQSENPAFPGTLICDKDEVRIEFSSRFDMEKWNPSVVDTLGSEILNCTYALDLERFVLKFPYETCTIKVVGGYQVNIRVGDTTTDVRYKDDMYHFFCPAIQ
On to B1, for which the fold higher affinity than MBP-mZP2(T103-Q138) is 30 fold.

Source of the values: publication doi:10.1101/2025.03.03.641048.
